In the supplement of paper PMC7877785:
± gives the uncertainty stated by the source.

Test: self-splicing fitness, log relative to wild type (ln ratio); higher = more splicing; Tetrahymena group I intron in knt gene, E. coli kanamycin selection, DiMSum; sequences stand for … in CUCUCU…GGAGGGAAAAGUUAUCAGGCAUGCACCUGGUAGCUAGUCUUUAAACCAAUAGAUUGCAUCGGUUUAAAAGGCAAGACCGUCAAAUUGCGGGAAAGGGGUCAACAGCCGUUCAGUACCAAGUCUCAGGGGAAACUUUGAGAUGGCCUUGCAAAGGGUAUGGUAAUAAGCUGACGGACAUGGUCCUAACCACGCAGCCAAGUCCUAAGUCAACAGAUCUUCUGUUGAUAUGGAUGCAGUUCACAGACUAAAUGUCGGUCGGGGAAGAUGUAUUCUUCUCAUAAGAUAUAGUCGGACCUCUCCUUAAUGGGAGCUAGCGGAUGAAGUGAUGCAACACUGGAGCCGCUGGGAACUAAUUUGUAUGCGAAAGUAUAUUGAUUAGUUUUGGAGUACUCGUGGUCG
Outline: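 Colonies from six replicate transformations of E. coli BL21(DE3) were pooled and amplicon-sequenced on an Illumina HiSeq 2500. The library placed an intron with all eight P1ex-region nucleotides randomised inside the knt kanamycin-resistance gene on pET-22b(+), and cells grew overnight at 37°C or 30°C on LB agar with or without 25 μg/mL kanamycin (plus 100 μg/mL carbenicillin, 50 μM IPTG, 0.2% rhamnose). Fitness is the DiMSum error-weighted combination of wild-type-normalised replicate fold changes, kanamycin versus none.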

Sequence | self-splicing fitness (ln) (30 °C) | self-splicing fitness (ln) (37 °C)
CUGAAGCAAUAUUACGCGGU | -1.86 ± 0.08 | -0.746 ± 0.081
UCACAGCAAUAUUACGGGCA | -0.496 ± 0.075 | -0.337 ± 0.083
GGUAAGCAAUAUUACGUACG | -0.395 ± 0.11 | -0.415 ± 0.12
GUAGAGCAAUAUUACGUGAG | -2.33 ± 0.15 | -0.687 ± 0.16
UUACAGCAAUAUUACGGUGG | -1.08 ± 0.087 | -0.457 ± 0.1
UCUCAGCAAUAUUACGAUUG | -3.43 ± 0.17 | -2.07 ± 0.17
CGGCAGCAAUAUUACGCCAU | -3.11 ± 0.2 | -1.6 ± 0.16
AGACAGCAAUAUUACGCUUG | -2.71 ± 0.13 | -1 ± 0.12
CCGCAGCAAUAUUACGCCCA |  | -2.55 ± 0.31
AAGUAGCAAUAUUACGCGUA | -2.15 ± 0.13 | -1.29 ± 0.14
AGAAAGCAAUAUUACGAAUA | -2.51 ± 0.17 | -0.949 ± 0.14
GGUAAGCAAUAUUACGAACU | -1.25 ± 0.25 | -1.67 ± 0.36
UCAGAGCAAUAUUACGGUUU | -3.76 ± 0.28 | -2.07 ± 0.18
GAUUAGCAAUAUUACGUACA | -1.89 ± 0.24 | -0.352 ± 0.15
GUGAAGCAAUAUUACGGCUC | -0.996 ± 0.091 | -0.646 ± 0.099
CCUGAGCAAUAUUACGCCGC | -2.83 ± 0.5 | 0.153 ± 0.33
GAAGAGCAAUAUUACGCUAC | -3.19 ± 0.25 | 
UGGCAGCAAUAUUACGUAUC | -3.85 ± 0.31 | -1.82 ± 0.25
UCGUAGCAAUAUUACGAGAA | -2.57 ± 0.49 | -1.61 ± 0.41
UCGUAGCAAUAUUACGGCUC |  | -1.44 ± 0.24
AGGGAGCAAUAUUACGCGUU |  | -2.46 ± 0.44
GAAGAGCAAUAUUACGUUGG | -3.53 ± 0.18 | -2.34 ± 0.16
GCCUAGCAAUAUUACGAAAU | -2.34 ± 0.12 | -0.297 ± 0.13
UCCAAGCAAUAUUACGGUAA | -0.334 ± 0.067 | 0.257 ± 0.076
UCACAGCAAUAUUACGUUUC | -3.8 ± 0.19 | -3.02 ± 0.21

Sequence | self-splicing fitness (ln) (30 °C) | self-splicing fitness (ln) (37 °C)
UUACAGCAAUAUUACGCUGA | -3.22 ± 0.17 | -2.55 ± 0.19
ACCCAGCAAUAUUACGGGGG | -3.46 ± 0.17 | -2.43 ± 0.15
GCAAAGCAAUAUUACGUGGC | -3.38 ± 0.31 | -2.57 ± 0.24
UACUAGCAAUAUUACGUGGG | -3.32 ± 0.19 | -2.46 ± 0.18
UUUCAGCAAUAUUACGACAA | -0.0726 ± 0.12 | -0.913 ± 0.14
GAUCAGCAAUAUUACGUUUC | -2.26 ± 0.12 | -0.791 ± 0.1
UUAAAGCAAUAUUACGACGU | -0.129 ± 0.069 | 0.0726 ± 0.1
GUCAAGCAAUAUUACGUAGU | -1.21 ± 0.068 | -0.468 ± 0.1
GGUCAGCAAUAUUACGAUCU | -1.8 ± 0.17 | -1.93 ± 0.24
CCUAAGCAAUAUUACGGUUG | -3.92 ± 0.19 | -2.07 ± 0.15
UUAGAGCAAUAUUACGGGAU | -3.45 ± 0.39 | -2.97 ± 0.4
CUCAAGCAAUAUUACGGAUA | -2.72 ± 0.24 | -2.32 ± 0.28
GCUUAGCAAUAUUACGUAGA | -0.53 ± 0.076 | 0.396 ± 0.093
GAGUAGCAAUAUUACGCCGA | -1.54 ± 0.17 | -0.774 ± 0.13
UUAAAGCAAUAUUACGUUCA | 0.284 ± 0.087 | 0.233 ± 0.12
UGACAGCAAUAUUACGCUAU | -3.7 ± 0.2 | -1.09 ± 0.1
ACGAAGCAAUAUUACGAACA | -1.62 ± 0.13 | -0.229 ± 0.11
CAGUAGCAAUAUUACGUUAU | -2.82 ± 0.24 | -1.37 ± 0.2
AUUCAGCAAUAUUACGGAGC | -2.82 ± 0.23 | -1.71 ± 0.19
CUGUAGCAAUAUUACGUCUA |  | -1.78 ± 0.39
CUGCAGCAAUAUUACGGCCG | -0.291 ± 0.12 | -0.672 ± 0.14
CGAAAGCAAUAUUACGAGAA | -2.51 ± 0.49 | 
CGCUAGCAAUAUUACGUUCA | -1.39 ± 0.12 | -1.68 ± 0.14
UCGAAGCAAUAUUACGUUGG | -2.99 ± 0.12 | -1.86 ± 0.15
CGCAAGCAAUAUUACGGGAC | -3.18 ± 0.31 | -2.52 ± 0.29

Sequence | self-splicing fitness (ln) (30 °C) | self-splicing fitness (ln) (37 °C)
GACAAGCAAUAUUACGAGAG | -3.18 ± 0.17 | -2.96 ± 0.21
UGCCAGCAAUAUUACGAGCA | -1.75 ± 0.26 | -0.682 ± 0.27
GGCGAGCAAUAUUACGGCUU | -0.682 ± 0.2 | -0.0819 ± 0.35
UCACAGCAAUAUUACGUUAU | -3.61 ± 0.12 | -2.75 ± 0.12
GUGAAGCAAUAUUACGAUAU | -0.274 ± 0.044 | -0.103 ± 0.058
GGUAAGCAAUAUUACGUCGA |  | -0.708 ± 0.25
CCCAAGCAAUAUUACGUGGC | -3.5 ± 0.13 | -2.8 ± 0.18
CCUCAGCAAUAUUACGGGCG | -1.59 ± 0.069 | -0.619 ± 0.074
GUUUAGCAAUAUUACGAGCC | -3.21 ± 0.21 | -1.56 ± 0.2
UCAGAGCAAUAUUACGCAGU | -0.644 ± 0.22 | -1.83 ± 0.41
AUGCAGCAAUAUUACGUAAC | -2.78 ± 0.2 | -0.366 ± 0.15
UACGAGCAAUAUUACGGCAG | -2.22 ± 0.23 | -1.65 ± 0.21
AGAUAGCAAUAUUACGGGCU | -1.34 ± 0.15 | -1.38 ± 0.21
CGUUAGCAAUAUUACGCCAG | -0.657 ± 0.22 | 0.474 ± 0.35
UUUCAGCAAUAUUACGUCUG | -3.65 ± 0.22 | -1.87 ± 0.16
AGGAAGCAAUAUUACGAAUU | -2.58 ± 0.13 | -1.45 ± 0.15
AGCUAGCAAUAUUACGUUGG | -3.61 ± 0.19 | -2.03 ± 0.18
GGUUAGCAAUAUUACGCUCC | -1.71 ± 0.39 | 0.76 ± 0.48
AACUAGCAAUAUUACGUUCC | -2.63 ± 0.22 | -1.93 ± 0.24
CGCCAGCAAUAUUACGUCUA |  | -2.52 ± 0.3
AUCUAGCAAUAUUACGUCCG | -1.67 ± 0.2 | -1.42 ± 0.28
AAAAAGCAAUAUUACGUCUA | -0.394 ± 0.053 | 0.068 ± 0.07
UAUCAGCAAUAUUACGUAGU | -1.87 ± 0.086 | -1.19 ± 0.08
UUGCAGCAAUAUUACGUACG | -0.368 ± 0.08 | 0.233 ± 0.1
AAAAAGCAAUAUUACGGAGG | -3.71 ± 0.21 | -2.94 ± 0.2

Sequence | self-splicing fitness (ln) (30 °C) | self-splicing fitness (ln) (37 °C)
CCUCAGCAAUAUUACGAGCC | -0.962 ± 0.25 | -0.207 ± 0.41
UACGAGCAAUAUUACGAGAU | -3.99 ± 0.46 | -2.99 ± 0.38
CGACAGCAAUAUUACGCGUG | -1.55 ± 0.067 | -1.14 ± 0.095
UGCAAGCAAUAUUACGAUGU | -2.73 ± 0.16 | -2.14 ± 0.19
GCCUAGCAAUAUUACGCGCA | -1.21 ± 0.12 | -0.303 ± 0.11
ACCGAGCAAUAUUACGAUUG | -3.69 ± 0.17 | -2.02 ± 0.18
UGUCAGCAAUAUUACGUAGC | -3.11 ± 0.2 | -2.17 ± 0.19
CCCCAGCAAUAUUACGGUAU | -3.72 ± 0.13 | -2.88 ± 0.2
UAUUAGCAAUAUUACGCCGU |  | -1.63 ± 0.33
ACUUAGCAAUAUUACGAAGU | -3.91 ± 0.22 | -1.61 ± 0.19
UAGGAGCAAUAUUACGAAAA | -3.01 ± 0.45 | -1.65 ± 0.41
AGCAAGCAAUAUUACGCGAA | -2.39 ± 0.1 | -0.85 ± 0.099
CAUAAGCAAUAUUACGAGUU | -3.62 ± 0.29 | -1.82 ± 0.14
CUUGAGCAAUAUUACGGCAU |  | -1.93 ± 0.28
GACGAGCAAUAUUACGUUUC | -2.64 ± 0.24 | -3.33 ± 0.33
CUACAGCAAUAUUACGUUAU | -3.96 ± 0.13 | -2.79 ± 0.15
CCCUAGCAAUAUUACGUUAU | -4.33 ± 0.26 | -2.76 ± 0.19
GUAUAGCAAUAUUACGACCU | -1.21 ± 0.18 | -0.345 ± 0.18
AAUCAGCAAUAUUACGUGCC | -1.4 ± 0.14 | -0.598 ± 0.16
AAGGAGCAAUAUUACGCUAG | -2.17 ± 0.2 | 
GUAGAGCAAUAUUACGCAUC | -1.49 ± 0.13 | -1.37 ± 0.15
UGUGAGCAAUAUUACGUCCU | -0.548 ± 0.1 | -1.51 ± 0.18
GUUCAGCAAUAUUACGUCCU | -0.606 ± 0.14 | 0.279 ± 0.17
